Test results reported in patent US20230220035A1 (DONG-A ST CO., LTD., published 2023).
*1 amine or outer side, *2 acyl side, *3 side chain or, on linkers, in order; H or OH if unused. Side-chain parts run from the residue outwards. [ ]: non-standard residue; d: D form. The star is where a group is joined. C18 diacid = O=C(O)CCCCCCCCCCCCCCCCC(=O)*; γGlu = O=C(O)[C@H](CCC(=O)[*:2])N[*:1]; C14 diacid = O=C(O)CCCCCCCCCCCCC(=O)*; Stearoyl = CCCCCCCCCCCCCCCCCC(=O)*; AEEA = NCCOCCOCC(=O)O; Aib = CC(C)(N)C(=O)O

B1: Compound 6 (peptide)
peptide: H-H[Aib]QGTFTSDK([AEEA-AEEA-γGlu-Stearoyl])SKYLD[Aib]RRAQDFVQWLMNTKEYEK([Lys-AEEA-AEEA-AEEA-γGlu-C18 diacid])EYE-OH
B2: Compound 4 (peptide)
peptide: H-H[Aib]QGTFTSDK([AEEA-AEEA-γGlu-Stearoyl])SKYLD[Aib]RRAQDFVQWLMNTKEYEK([Lys-C18 diacid])EYE-OH
B3: Compound 3 (peptide)
peptide: H-H[Aib]QGTFTSDK([AEEA-AEEA-γGlu-Stearoyl])SKYLD[Aib]RRAQDFVQWLMNTKEYEK(C18 diacid)EYE-OH
SMILES: CCCCCCCCCCCCCCCCCC(=O)N[C@@H](CCC(=O)NCCOCCOCC(=O)NCCOCCOCC(=O)NCCCC[C@H](NC(=O)[C@H](CC(=O)O)NC(=O)[C@H](CO)NC(=O)[C@@H](NC(=O)[C@H](Cc1ccccc1)NC(=O)[C@@H](NC(=O)CNC(=O)[C@H](CCC(N)=O)NC(=O)C(C)(C)NC(=O)[C@@H](N)Cc1c[nH]cn1)[C@@H](C)O)[C@@H](C)O)C(=O)N[C@@H](CO)C(=O)N[C@@H](CCCCN)C(=O)N[C@@H](Cc1ccc(O)cc1)C(=O)N[C@@H](CC(C)C)C(=O)N[C@@H](CC(=O)O)C(=O)NC(C)(C)C(=O)N[C@@H](CCCNC(=N)N)C(=O)N[C@@H](CCCNC(=N)N)C(=O)N[C@@H](C)C(=O)N[C@@H](CCC(N)=O)C(=O)N[C@@H](CC(=O)O)C(=O)N[C@@H](Cc1ccccc1)C(=O)N[C@H](C(=O)N[C@@H](CCC(N)=O)C(=O)N[C@@H](Cc1c[nH]c2ccccc12)C(=O)N[C@@H](CC(C)C)C(=O)N[C@@H](CCSC)C(=O)N[C@@H](CC(N)=O)C(=O)N[C@H](C(=O)N[C@@H](CCCCN)C(=O)N[C@@H](CCC(=O)O)C(=O)N[C@@H](Cc1ccc(O)cc1)C(=O)N[C@@H](CCC(=O)O)C(=O)N[C@@H](CCCCNC(=O)CCCCCCCCCCCCCCCCC(=O)O)C(=O)N[C@@H](CCC(=O)O)C(=O)N[C@@H](Cc1ccc(O)cc1)C(=O)N[C@@H](CCC(=O)O)C(=O)O)[C@@H](C)O)C(C)C)C(=O)O
B4: Compound 5 (peptide)
peptide: H-H[Aib]QGTFTSDK([AEEA-AEEA-γGlu-Stearoyl])SKYLD[Aib]RRAQDFVQWLMNTKEYEK([AEEA-AEEA-AEEA-γGlu-C18 diacid])EYE-OH
SMILES: CCCCCCCCCCCCCCCCCC(=O)N[C@@H](CCC(=O)NCCOCCOCC(=O)NCCOCCOCC(=O)NCCCC[C@H](NC(=O)[C@H](CC(=O)O)NC(=O)[C@H](CO)NC(=O)[C@@H](NC(=O)[C@H](Cc1ccccc1)NC(=O)[C@@H](NC(=O)CNC(=O)[C@H](CCC(N)=O)NC(=O)C(C)(C)NC(=O)[C@@H](N)Cc1c[nH]cn1)[C@@H](C)O)[C@@H](C)O)C(=O)N[C@@H](CO)C(=O)N[C@@H](CCCCN)C(=O)N[C@@H](Cc1ccc(O)cc1)C(=O)N[C@@H](CC(C)C)C(=O)N[C@@H](CC(=O)O)C(=O)NC(C)(C)C(=O)N[C@@H](CCCNC(=N)N)C(=O)N[C@@H](CCCNC(=N)N)C(=O)N[C@@H](C)C(=O)N[C@@H](CCC(N)=O)C(=O)N[C@@H](CC(=O)O)C(=O)N[C@@H](Cc1ccccc1)C(=O)N[C@H](C(=O)N[C@@H](CCC(N)=O)C(=O)N[C@@H](Cc1c[nH]c2ccccc12)C(=O)N[C@@H](CC(C)C)C(=O)N[C@@H](CCSC)C(=O)N[C@@H](CC(N)=O)C(=O)N[C@H](C(=O)N[C@@H](CCCCN)C(=O)N[C@@H](CCC(=O)O)C(=O)N[C@@H](Cc1ccc(O)cc1)C(=O)N[C@@H](CCC(=O)O)C(=O)N[C@@H](CCCCNC(=O)COCCOCCNC(=O)COCCOCCNC(=O)COCCOCCNC(=O)CC[C@H](NC(=O)CCCCCCCCCCCCCCCCC(=O)O)C(=O)O)C(=O)N[C@@H](CCC(=O)O)C(=O)N[C@@H](Cc1ccc(O)cc1)C(=O)N[C@@H](CCC(=O)O)C(=O)O)[C@@H](C)O)C(C)C)C(=O)O
B5: Compound 1 (peptide)
peptide: H-H[Aib]QGTFTSDK([AEEA-AEEA-γGlu-Stearoyl])SKYLD[Aib]RRAQDFVQWLMNTKEYEK(C14 diacid)EYE-OH
SMILES: CCCCCCCCCCCCCCCCCC(=O)N[C@@H](CCC(=O)NCCOCCOCC(=O)NCCOCCOCC(=O)NCCCC[C@H](NC(=O)[C@H](CC(=O)O)NC(=O)[C@H](CO)NC(=O)[C@@H](NC(=O)[C@H](Cc1ccccc1)NC(=O)[C@@H](NC(=O)CNC(=O)[C@H](CCC(N)=O)NC(=O)C(C)(C)NC(=O)[C@@H](N)Cc1c[nH]cn1)[C@@H](C)O)[C@@H](C)O)C(=O)N[C@@H](CO)C(=O)N[C@@H](CCCCN)C(=O)N[C@@H](Cc1ccc(O)cc1)C(=O)N[C@@H](CC(C)C)C(=O)N[C@@H](CC(=O)O)C(=O)NC(C)(C)C(=O)N[C@@H](CCCNC(=N)N)C(=O)N[C@@H](CCCNC(=N)N)C(=O)N[C@@H](C)C(=O)N[C@@H](CCC(N)=O)C(=O)N[C@@H](CC(=O)O)C(=O)N[C@@H](Cc1ccccc1)C(=O)N[C@H](C(=O)N[C@@H](CCC(N)=O)C(=O)N[C@@H](Cc1c[nH]c2ccccc12)C(=O)N[C@@H](CC(C)C)C(=O)N[C@@H](CCSC)C(=O)N[C@@H](CC(N)=O)C(=O)N[C@H](C(=O)N[C@@H](CCCCN)C(=O)N[C@@H](CCC(=O)O)C(=O)N[C@@H](Cc1ccc(O)cc1)C(=O)N[C@@H](CCC(=O)O)C(=O)N[C@@H](CCCCNC(=O)CCCCCCCCCCCCC(=O)O)C(=O)N[C@@H](CCC(=O)O)C(=O)N[C@@H](Cc1ccc(O)cc1)C(=O)N[C@@H](CCC(=O)O)C(=O)O)[C@@H](C)O)C(C)C)C(=O)O
B6: Comparative Example Compound 8 (peptide)
peptide: H-H[Aib]QGTFTSDK([AEEA-AEEA-γGlu-Stearoyl])SKYLD[Aib]RRAQDFVQWLMNTK-OH
SMILES: CCCCCCCCCCCCCCCCCC(=O)N[C@@H](CCC(=O)NCCOCCOCC(=O)NCCOCCOCC(=O)NCCCC[C@H](NC(=O)[C@H](CC(=O)O)NC(=O)[C@H](CO)NC(=O)[C@@H](NC(=O)[C@H](Cc1ccccc1)NC(=O)[C@@H](NC(=O)CNC(=O)[C@H](CCC(N)=O)NC(=O)C(C)(C)NC(=O)[C@@H](N)Cc1c[nH]cn1)[C@@H](C)O)[C@@H](C)O)C(=O)N[C@@H](CO)C(=O)N[C@@H](CCCCN)C(=O)N[C@@H](Cc1ccc(O)cc1)C(=O)N[C@@H](CC(C)C)C(=O)N[C@@H](CC(=O)O)C(=O)NC(C)(C)C(=O)N[C@@H](CCCNC(=N)N)C(=O)N[C@@H](CCCNC(=N)N)C(=O)N[C@@H](C)C(=O)N[C@@H](CCC(N)=O)C(=O)N[C@@H](CC(=O)O)C(=O)N[C@@H](Cc1ccccc1)C(=O)N[C@H](C(=O)N[C@@H](CCC(N)=O)C(=O)N[C@@H](Cc1c[nH]c2ccccc12)C(=O)N[C@@H](CC(C)C)C(=O)N[C@@H](CCSC)C(=O)N[C@@H](CC(N)=O)C(=O)N[C@H](C(=O)N[C@@H](CCCCN)C(=O)O)[C@@H](C)O)C(C)C)C(=O)O
B7: Compound 7 (peptide)
peptide: H-H[Aib]QGTFTSDK([AEEA-AEEA-γGlu-Stearoyl])SKYLD[Aib]RRAQDFVQWLMNTKEYEK(17‑aminocarboxy‑1‑oxoheptadecyl)EYE-OH

What was measured:
in vivo = details: cynomolgus monkey, sc
Source text: Cynomolgus monkeys were used to evaluate the pharmacokinetics in monkeys of the acylated oxyntomodulin peptide analogs according to the present invention.

glucagon receptor = glucagon receptor (Homo sapiens, UniProt P47871); assay: Human glucagon receptor activation assay (CRE-luciferase); type: cell-based; parameters: host or cells: CHO-K1; details: CHO-K1 cells transiently transfected
Chain of glucagon receptor (P47871 26-477): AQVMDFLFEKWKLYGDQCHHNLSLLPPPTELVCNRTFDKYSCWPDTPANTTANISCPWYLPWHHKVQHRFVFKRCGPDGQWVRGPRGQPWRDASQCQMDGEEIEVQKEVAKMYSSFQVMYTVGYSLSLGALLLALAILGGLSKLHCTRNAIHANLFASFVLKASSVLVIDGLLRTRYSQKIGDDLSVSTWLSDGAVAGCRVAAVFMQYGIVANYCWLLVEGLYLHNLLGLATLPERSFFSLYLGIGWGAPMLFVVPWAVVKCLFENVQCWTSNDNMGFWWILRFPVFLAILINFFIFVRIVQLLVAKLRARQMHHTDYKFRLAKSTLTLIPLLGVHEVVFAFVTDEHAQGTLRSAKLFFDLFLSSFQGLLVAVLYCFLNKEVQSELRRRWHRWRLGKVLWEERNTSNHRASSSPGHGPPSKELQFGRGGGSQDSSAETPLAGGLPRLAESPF
Method: (§1) Then, the resulting increased luciferase activity was evaluated as a measurement of the effect on each receptor activation.
(§2) For positive control, endogenous ligand GLP-1 or glucagon was used for respective evaluation. The above-mentioned acylated oxyntomodulin peptide analogs of Comparative Example 8-12 were synthesized and used as comparative examples.
(§3) After 3 hours of transfection, medium was exchanged to Alpha Minimal Essential Medium (α-MEM) comprising 10% fetal bovine serum (FBS). Next day, the medium was exchanged to α-MEM comprising the acylated oxyntomodulin peptide analog of the present invention and 0.1% bovine serum albumin (BSA). After 6 hours, dual luciferase assay reagent (Promega) was added in the same amount as the medium in which the cells were submerged, and firefly luciferase and Renilla luciferase activities were successively measured. Firefly luciferase activity values were corrected against Renilla luciferase activity to yield transfection efficiency.

GLP-1 receptor = GLP-1 receptor (Homo sapiens, UniProt P43220); assay: Human GLP-1 receptor activation assay (CRE-luciferase); type: cell-based; parameters: host or cells: CHO-K1
Chain of GLP-1 receptor (P43220 24-463): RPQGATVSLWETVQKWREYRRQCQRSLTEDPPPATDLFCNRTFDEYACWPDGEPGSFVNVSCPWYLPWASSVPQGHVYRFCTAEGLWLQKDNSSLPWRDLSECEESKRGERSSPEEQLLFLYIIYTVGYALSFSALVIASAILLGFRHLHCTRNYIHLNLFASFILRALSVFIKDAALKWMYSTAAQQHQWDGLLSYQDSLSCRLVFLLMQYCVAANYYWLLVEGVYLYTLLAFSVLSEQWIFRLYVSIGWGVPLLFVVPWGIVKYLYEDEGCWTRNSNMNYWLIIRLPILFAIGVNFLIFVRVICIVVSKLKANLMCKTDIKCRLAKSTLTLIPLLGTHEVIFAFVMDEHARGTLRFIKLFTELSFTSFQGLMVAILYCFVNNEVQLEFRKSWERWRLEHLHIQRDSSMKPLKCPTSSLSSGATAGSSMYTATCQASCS
Method: as §1, §2, §3

Human glucagon receptor = Human glucagon receptor (human, UniProt P47871); assay: cell-based or functional assay
Human GLP-1 receptor = Human GLP-1 receptor (human, UniProt P43220); assay: cell-based or functional assay

Molecule	Maximum activation (% vs GCG) (Human glucagon receptor)	Maximum activation (% vs GLP-1) (Human GLP-1 receptor)	EC50 (Human glucagon receptor)	EC50 (Human GLP-1 receptor)	also measured
CCCCCCCCCCCCCCCCCC(=O)N[C@@H](CCC(=O)NCCOCCOCC(=O)NCCOCCOCC(=O)NCCCC[C@H](NC(=O)[C@H](CC(=O)O)NC(=O)[C@H](CO)NC(=O)[C@@H](NC(=O)[C@H](Cc1ccccc1)NC(=O)[C@@H](NC(=O)CNC(=O)[C@H](CCC(N)=O)NC(=O)C(C)(C)NC(=O)[C@@H](N)Cc1c[nH]cn1)[C@@H](C)O)[C@@H](C)O)C(=O)N[C@@H](CO)C(=O)N[C@@H](CCCCN)C(=O)N[C@@H](Cc1ccc(O)cc1)C(=O)N[C@@H](CC(C)C)C(=O)N[C@@H](CC(=O)O)C(=O)NC(C)(C)C(=O)N[C@@H](CCCNC(=N)N)C(=O)N[C@@H](CCCNC(=N)N)C(=O)N[C@@H](C)C(=O)N[C@@H](CCC(N)=O)C(=O)N[C@@H](CC(=O)O)C(=O)N[C@@H](Cc1ccccc1)C(=O)N[C@H](C(=O)N[C@@H](CCC(N)=O)C(=O)N[C@@H](Cc1c[nH]c2ccccc12)C(=O)N[C@@H](CC(C)C)C(=O)N[C@@H](CCSC)C(=O)N[C@@H](CC(N)=O)C(=O)N[C@H](C(=O)N[C@@H](CCCCN)C(=O)N[C@@H](CCC(=O)O)C(=O)N[C@@H](Cc1ccc(O)cc1)C(=O)N[C@@H](CCC(=O)O)C(=O)N[C@@H](CCCCNC(=O)CCCCCCCCCCCCCCC)C(=O)N[C@@H](CCC(=O)O)C(=O)N[C@@H](Cc1ccc(O)cc1)C(=O)N[C@@H](CCC(=O)O)C(=O)O)[C@@H](C)O)C(C)C)C(=O)O [Compound 9]					half-life (in vivo; Monkey PK (S.C. half-life)): 6 to 12 h; half-life (in vivo; monkey PK half-life): < 12 h; Emax (glucagon receptor; 6 h, relative to glucagon, read-out: GCG receptor Maximum activation (% vs GCG)): 73.3%; EC50 (glucagon receptor; 6 hours, 0.1% BSA, read-out: GCG receptor EC50): 0.1 to 1 nM; Emax (GLP-1 receptor; CHO-K1, 6 h, read-out: GLP-1 receptor Maximum activation (% vs GLP-1)): 70.4%; EC50 (GLP-1 receptor; CHO-K1 cells transiently transfected, luciferase, 6 hours, 0.1% BSA): 0.1 to 1 nM
B1	89.1%	83.8%			
B2	95.4%	87.9%	≥ 1 nM		
B3	98.3%	98.3%			
B4	99.4%	93.6%			
B5	107%	102%	< 0.1 nM	< 0.1 nM	
B6	103%	99.3%	< 0.1 nM	< 0.1 nM	
B7	100%	90.8%	< 0.1 nM	< 0.1 nM	
